The values below are quoted from earlier work in patent US20120128767A1, “THERAPEUTIC CALCIUM PHOSPHATE PARTICLES AND METHODS OF MAKING AND USING SAME” (priority 2008, published 2012).

Read-outs that look alike come from different tables or passages of the source.

For insulin, the absorption efficiency result (insulin added to preformed calcium phosphate particles) was “about 40%” and the absorption efficiency result (insulin mixed during the particle formation) is reported as “about 89%”.
